The values below come from PMC4649906, “Unraveling the molecular architecture of a G protein-coupled receptor/β-arrestin/Erk module complex” (Scientific Reports, 2015).

The experiment concerns the target T1, human recombinant β-arrestin 1 (human, UniProt P49407 1-418).
T1 construct: β-arrestin 1, human, recombinant; Used as the prey (25 ng) in the GST pull-downs; source: bought: Gentaur (human recombinant)
Nature of the experiment: pull-down; GST fusion protein immobilised on Glutathione Sepharose 4B beads; 25 ng human recombinant β-arrestin 1 as prey, with or without 0.5 mM peptide; 20 mM Hepes pH 7.9, 50 mM KCl, 2.5 mM MgCl2, 1 mM DTT, 10% glycerol, protease and phosphatase inhibitors; 1 hour at 4 °C; six washes; blot with anti-β-arrestin, quantified as the ratio of β-arrestin 1 over GST fusion. As to conditions: both partners purified.

T1 sequence (P49407 whole entry): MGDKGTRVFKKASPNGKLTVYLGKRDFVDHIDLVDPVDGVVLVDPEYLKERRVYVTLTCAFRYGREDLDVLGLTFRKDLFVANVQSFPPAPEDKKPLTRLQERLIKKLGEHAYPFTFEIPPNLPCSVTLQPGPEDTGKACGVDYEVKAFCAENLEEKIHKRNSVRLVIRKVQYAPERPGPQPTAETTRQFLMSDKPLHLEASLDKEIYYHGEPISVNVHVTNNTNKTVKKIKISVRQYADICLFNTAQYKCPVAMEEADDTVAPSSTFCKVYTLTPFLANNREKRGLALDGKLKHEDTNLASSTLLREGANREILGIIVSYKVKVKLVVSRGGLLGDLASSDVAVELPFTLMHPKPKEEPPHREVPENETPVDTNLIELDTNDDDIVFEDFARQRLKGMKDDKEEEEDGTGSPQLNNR

B1: Raf1 interfering peptide (peptide)
peptide: KQRTVVNVRN
notes: stretch of Raf1 at the predicted interface with β-arrestin 1, within the RBD; Printed as H-KQRTVVNVRN-OH (free ends); Resuspended in H2O and used at 0.5 mM; source: synthetic peptide (Genecust laboratories)
As to B1, the binding result is “binds”.

B2: ERK interfering peptide (peptide)
peptide: ISPFEHQTY
notes: stretch of ERK2 at the predicted interface with β-arrestin 1; Printed as H-ISPFEHQTY-OH (free ends); Resuspended in H2O + 5% DMSO and used at 0.5 mM; source: synthetic peptide (Genecust laboratories)
For the molecule B2, the binding result is “binds”.
